Series [1] has as its system T1, CCCC(=O)Oc1ccc([N+](=O)[O-])cc1.
T1 construct: signal peptide (16 residues) removed, 215-residue precursor; pPIC9K secreted from Pichia pastoris GS115; purified on Q Sepharose; no tag mentioned
Nature of the series: p-nitrophenol release, Michaelis-Menten fit (GraFit). It counts as biochemical, Malbranchea cinnamomea. The settings on record: 50 mM Tris-HCl pH 8.0, 45 °C, 5 min.

Series [2] relates to T2, CCCCCC(=O)Oc1ccc([N+](=O)[O-])cc1.
T2 construct: signal peptide (16 residues) removed, 215-residue precursor; pPIC9K secreted from Pichia pastoris GS115; purified on Q Sepharose; no tag mentioned
The description is as above. It counts as biochemical, Malbranchea cinnamomea. The settings on record: 50 mM Tris-HCl pH 8.0, 45 °C, 5 min.

Among the data in paper PMC5606096, “High-level expression and characterization of a novel cutinase from Malbranchea cinnamomea suitable for butyl butyrate production” (Biotechnology for Biofuels, 2017) are Km and kcat values, retold here.

Sequence of McCut (Malbranchea cinnamomea) (chain, as listed by the source): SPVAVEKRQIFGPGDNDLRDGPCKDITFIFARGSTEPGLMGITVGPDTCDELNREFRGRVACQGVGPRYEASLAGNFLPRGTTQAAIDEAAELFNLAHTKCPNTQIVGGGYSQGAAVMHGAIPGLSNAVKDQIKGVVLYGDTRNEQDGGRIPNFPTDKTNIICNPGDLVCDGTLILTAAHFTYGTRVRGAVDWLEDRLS

On to McCut (Malbranchea cinnamomea), for which, in series [1], the Km came out at 660 µM and the catalytic constant (kcat) worked out at 0.46 s⁻¹. Moreover, in series [2], the Km came out at 270 µM and the kcat came to 0.46 s⁻¹.

The Km is the substrate concentration at which the rate is half of its maximum. For orientation: kcat means the maximal rate divided by the concentration of active sites.
